The test system of the series is Saccharomyces cerevisiae. Briefly: protein stability index of tFT-peptide fusion (C-terminal peptide) (PSI (0-1 scale)); higher = more stable (slower turnover). The settings on record: temperature: 30 C. On the procedure: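 MPS profiling in S. cerevisiae of the yeast C-terminome library: the last 12 aa of each annotated ORF are fused to the C-terminus of a sfGFP-mCherry timer, after a GGGS linker. Cells are FACS-sorted into 8 mCherry/sfGFP bins and deep-sequenced. PSI runs from 0 (unstable) to 1 (stable); wild type and das1Δ backgrounds, two technical replicates each.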

Setting [1] is: genetic background: das1 deletion.

± gives the standard deviation of the averaged measurements.

RLQQVRKNPYPF [OPI7 C-terminal 12 aa]: the protein stability index is, setting by setting: under setting [1], 0.7357 ± 0.0072; (genetic background: wild type) 0.712 ± 0.032.

For the sequence RLYDRINGKPHD [MRP10 C-terminal 12 aa], the protein stability index came out at 0.671 ± 0.014 under setting [1] and 0.668 ± 0.021 (genetic background: wild type).

Sequence RNVYSTKTRCIE [TDA10 C-terminal 12 aa] registered a protein stability index under setting [1] of 0.681 ± 0.017 and a protein stability index (genetic background: wild type) of 0.699 ± 0.023.

As to RQDNNHNGSSNG [MET32 C-terminal 12 aa], the protein stability index by setting is: under setting [1], 0.6936 ± 0.0016; (genetic background: wild type) 0.706 ± 0.025.

With RQFKEILTVKEE [RRP40 C-terminal 12 aa], the protein stability index under setting [1] was determined as 0.6732 ± 0.0037 and the protein stability index (genetic background: wild type) is 0.687 ± 0.013.

For the sequence RQNDKGAIKKSK [YEA4 C-terminal 12 aa], the protein stability index is, setting by setting: under setting [1], 0.676 ± 0.019; (genetic background: wild type) 0.719 ± 0.049.

For the sequence RRAAESGKLKME [YNL108C C-terminal 12 aa], the protein stability index is, setting by setting: under setting [1], 0.693 ± 0.029; (genetic background: wild type) 0.698 ± 0.067.

Consider RRDYWLSKGQAL [TRF5 C-terminal 12 aa], for which the protein stability index is 0.7173 ± 0.0032 under setting [1] and 0.725 ± 0.032 (genetic background: wild type).

Take RREATRISDLLK [FMS1 C-terminal 12 aa]: the protein stability index turned out to be 0.695 ± 0.014 under setting [1] and 0.703 ± 0.06 (genetic background: wild type).

In the case of RRRASKNAFRGM [ENP2 C-terminal 12 aa], the protein stability index runs as follows: under setting [1], 0.696 ± 0.02; (genetic background: wild type) 0.692 ± 0.014.

In the case of RSRKWKRRLFHL [PEX32 C-terminal 12 aa], the protein stability index is, setting by setting: under setting [1], 0.825 ± 0.038; (genetic background: wild type) 0.6 ± 0.12.

For the sequence RSRSINGDWRKD [PAN5 C-terminal 12 aa], the protein stability index came to 0.6835 ± 0.0046 under setting [1] and 0.6967 ± 0.0028 (genetic background: wild type).

RSTFLMHGRLAT [MAK3 C-terminal 12 aa]: the protein stability index is 0.707 ± 0.02 under setting [1] and 0.702 ± 0.019 (genetic background: wild type).

Consider RVAVIEDDEDED [LEO1 C-terminal 12 aa], for which the protein stability index turned out to be 0.688 ± 0.0068 under setting [1] and 0.692 ± 0.021 (genetic background: wild type).

Take RVGQTNSPSDSQ [DFM1 C-terminal 12 aa]: the protein stability index under setting [1] was found to be 0.706 ± 0.0087 and the protein stability index (genetic background: wild type) was 0.695 ± 0.049.

Sequence RVKILHRDDTKK [UPF3 C-terminal 12 aa] had a protein stability index under setting [1] of 0.707 ± 0.024 and a protein stability index (genetic background: wild type) of 0.732 ± 0.093.

Take RWHIQRITSPLS [STP22 C-terminal 12 aa]: the protein stability index by setting is: under setting [1], 0.74 ± 0.048; (genetic background: wild type) 0.719 ± 0.028.

In turn, RYKILDLIISKL [UTP6 C-terminal 12 aa] had a protein stability index under setting [1] of 0.789 ± 0.042 and a protein stability index (genetic background: wild type) of 0.683 ± 0.04.

Take RYVIFQSCGLIL [MRX8 C-terminal 12 aa]: the protein stability index is 0.657 ± 0.031 under setting [1] and 0.683 ± 0.012 (genetic background: wild type).

Take SAQDSDIDLQDA [MCM7 C-terminal 12 aa]: the protein stability index runs as follows: under setting [1], 0.695 ± 0.0088; (genetic background: wild type) 0.682 ± 0.031.

As for SASSTPSSTTMS [SPT20 C-terminal 12 aa], the protein stability index runs as follows: under setting [1], 0.682 ± 0.0019; (genetic background: wild type) 0.681 ± 0.011.

For the sequence SCRTTPQVRARA [YLR279W C-terminal 12 aa], the protein stability index is 0.6944 ± 0.0046 under setting [1] and 0.6946 ± 0.0043 (genetic background: wild type).

SDENIQPELRGQ [ABF1 C-terminal 12 aa]: the protein stability index reads like this: under setting [1], 0.675 ± 0.018; (genetic background: wild type) 0.723 ± 0.047.

In the case of SEETKKSCCSGK [CUP1-1 C-terminal 12 aa], the protein stability index runs as follows: under setting [1], 0.695 ± 0.01; (genetic background: wild type) 0.757 ± 0.048.

As for SEINDDFHQWAQ [DEP1 C-terminal 12 aa], the protein stability index is 0.727 ± 0.021 under setting [1] and 0.698 ± 0.0071 (genetic background: wild type).

Take SEIVDISQLPPG [ILV6 C-terminal 12 aa]: the protein stability index under setting [1] amounted to 0.6812 ± 0.0022 and the protein stability index (genetic background: wild type) amounted to 0.7033 ± 0.0062.

Take “SFDVELVGLKFV [YHL019W-A C-terminal 12 aa]”: the protein stability index was determined as 0.7172 ± 0.005 under setting [1] and 0.695 ± 0.029 (genetic background: wild type).

For SFFCRSSSKSSK [YSC83 C-terminal 12 aa], the protein stability index is 0.7232 ± 0.0053 under setting [1] and 0.724 ± 0.0074 (genetic background: wild type).

Take SGFFSSLKTMFN [PAR32 C-terminal 12 aa]: the protein stability index reads like this: under setting [1], 0.719 ± 0.027; (genetic background: wild type) 0.726 ± 0.058.

On to SGNNLGICFYKE [NUP170 C-terminal 12 aa], for which the protein stability index reads like this: under setting [1], 0.6733 ± 0.005; (genetic background: wild type) 0.677 ± 0.019.

In turn, SHYHMWPIKRII [YMR082C C-terminal 12 aa] registered a protein stability index under setting [1] of 0.6853 ± 0.0064 and a protein stability index (genetic background: wild type) of 0.567 ± 0.011.

On to SIDELETEISTW [BCP1 C-terminal 12 aa], for which the protein stability index under setting [1] worked out at 0.718 ± 0.015 and the protein stability index (genetic background: wild type) came out at 0.6932 ± 0.0068.

For SKEFVGSVYLNF [TRL1 C-terminal 12 aa], the protein stability index by setting is: under setting [1], 0.679 ± 0.009; (genetic background: wild type) 0.678 ± 0.03.

Regarding SKILFLCQINIS [YNR042W C-terminal 12 aa], the protein stability index by setting is: under setting [1], 0.312 ± 0.03; (genetic background: wild type) 0.313 ± 0.015.

As to SKIPSSLYIYHM [YGL042C C-terminal 12 aa], the protein stability index reads like this: under setting [1], 0.7073 ± 0.0067; (genetic background: wild type) 0.619 ± 0.04.

SKLNAVHTANEK [SEC8 C-terminal 12 aa]: the protein stability index is, setting by setting: under setting [1], 0.712 ± 0.016; (genetic background: wild type) 0.686 ± 0.022.

Sequence SLENVAMLVYKK [TRM13 C-terminal 12 aa] had a protein stability index under setting [1] of 0.698 ± 0.048 and a protein stability index (genetic background: wild type) of 0.66 ± 0.026.

For SLKPSEKKLYYL [NTH2 C-terminal 12 aa], the protein stability index under setting [1] amounted to 0.721 ± 0.0073 and the protein stability index (genetic background: wild type) is 0.663 ± 0.02.

SLLGIQKSVRNL [MDM20 C-terminal 12 aa]: the protein stability index reads like this: under setting [1], 0.691 ± 0.056; (genetic background: wild type) 0.6654 ± 0.006.

On to SLNQPELINFKS [IZH4 C-terminal 12 aa], for which the protein stability index runs as follows: under setting [1], 0.714 ± 0.017; (genetic background: wild type) 0.71 ± 0.046.

Consider SLQKIDATYIRG [SDS22 C-terminal 12 aa], for which the protein stability index is 0.702 ± 0.017 under setting [1] and 0.687 ± 0.017 (genetic background: wild type).

Regarding SLSSLSNQRCTT [YCR023C C-terminal 12 aa], the protein stability index under setting [1] worked out at 0.709 ± 0.011 and the protein stability index (genetic background: wild type) worked out at 0.68 ± 0.052.

Consider SMGNYYKSFFSM [OMA1 C-terminal 12 aa], for which the protein stability index is, setting by setting: under setting [1], 0.704 ± 0.02; (genetic background: wild type) 0.6294 ± 0.0025.

Consider SNHECSQINLLE [YCL021W C-terminal 12 aa], for which the protein stability index runs as follows: under setting [1], 0.695 ± 0.018; (genetic background: wild type) 0.688 ± 0.017.

In the case of SPTRKRPPPRLS [INN1 C-terminal 12 aa], the protein stability index reads like this: under setting [1], 0.726 ± 0.0049; (genetic background: wild type) 0.722 ± 0.0076.

Take SQDDSILSSDPF [NIS1 C-terminal 12 aa]: the protein stability index by setting is: under setting [1], 0.715 ± 0.015; (genetic background: wild type) 0.666 ± 0.014.

SQFVNDPFWANI [HIS2 C-terminal 12 aa]: the protein stability index runs as follows: under setting [1], 0.757 ± 0.031; (genetic background: wild type) 0.756 ± 0.04.

As for SQIRTPLVMLLM [YOR318C C-terminal 12 aa], the protein stability index is, setting by setting: under setting [1], 0.651 ± 0.025; (genetic background: wild type) 0.454 ± 0.0056.

For SQPDYKYLFDTQ [YRM1 C-terminal 12 aa], the protein stability index is 0.71 ± 0.027 under setting [1] and 0.623 ± 0.025 (genetic background: wild type).

SRIIIKAARGII [YOR082C C-terminal 12 aa]: the protein stability index runs as follows: under setting [1], 0.704 ± 0.042; (genetic background: wild type) 0.678 ± 0.019.

Take SRRFYRKIDHLA [YLR400W C-terminal 12 aa]: the protein stability index reads like this: under setting [1], 0.699 ± 0.02; (genetic background: wild type) 0.507 ± 0.018.

Consider SRVVLSQGDSDD [TOF1 C-terminal 12 aa], for which the protein stability index reads like this: under setting [1], 0.68424 ± 0.00057; (genetic background: wild type) 0.662 ± 0.026.

For SSSSLYTESPIR [IGO1 C-terminal 12 aa], the protein stability index runs as follows: under setting [1], 0.7011 ± 0.0054; (genetic background: wild type) 0.717 ± 0.066.

For the sequence SSVVSIPLREIL [YNR048W C-terminal 12 aa], the protein stability index was 0.712 ± 0.016 under setting [1] and 0.711 ± 0.07 (genetic background: wild type).

For the sequence STITSMNPDTTK [VHS2 C-terminal 12 aa], the protein stability index by setting is: under setting [1], 0.711 ± 0.031; (genetic background: wild type) 0.669 ± 0.04.

In the case of STKATPTDLSKL [MLS1 C-terminal 12 aa], the protein stability index is 0.7565 ± 0.0027 under setting [1] and 0.8075 ± 0.0051 (genetic background: wild type).

For STTMNFNYQTKV [SDD1 C-terminal 12 aa], the protein stability index under setting [1] came to 0.696 ± 0.011 and the protein stability index (genetic background: wild type) came out at 0.363 ± 0.0082.

As to STVLINVCKPTY [BAR1 C-terminal 12 aa], the protein stability index is 0.681 ± 0.013 under setting [1] and 0.667 ± 0.048 (genetic background: wild type).

On to SVFIAAVAAMLI [CCW14 C-terminal 12 aa], for which the protein stability index was found to be 0.603 ± 0.013 under setting [1] and 0.586 ± 0.016 (genetic background: wild type).

The sequence SVSYASGYVTIG [MHO1 C-terminal 12 aa] returned a protein stability index under setting [1] of 0.705 ± 0.034 and a protein stability index (genetic background: wild type) of 0.64 ± 0.011.

Turning to SVTAGYLPDLWR [YCH1 C-terminal 12 aa], the protein stability index is, setting by setting: under setting [1], 0.73 ± 0.0093; (genetic background: wild type) 0.728 ± 0.036.

In turn, SYEIVKNGHKNS [APC2 C-terminal 12 aa] yielded a protein stability index under setting [1] of 0.6772 ± 0.0007 and a protein stability index (genetic background: wild type) of 0.687 ± 0.018.

Regarding TADIVYIDSELD [SPE1 C-terminal 12 aa], the protein stability index turned out to be 0.6746 ± 0.0022 under setting [1] and 0.694 ± 0.083 (genetic background: wild type).

TANKAGNKFQLS [LDO16 C-terminal 12 aa]: the protein stability index reads like this: under setting [1], 0.707 ± 0.0029; (genetic background: wild type) 0.675 ± 0.019.

TATAPRLFDKLK [QCR6 C-terminal 12 aa] gave a protein stability index under setting [1] of 0.7007 ± 0.007 and a protein stability index (genetic background: wild type) of 0.662 ± 0.026.

In the case of TAYFICGMVIQL [YDL041W C-terminal 12 aa], the protein stability index worked out at 0.349 ± 0.014 under setting [1] and 0.34 ± 0.011 (genetic background: wild type).

Consider TCEACGNRWKFS [DST1 C-terminal 12 aa], for which the protein stability index came out at 0.7329 ± 0.0019 under setting [1] and 0.697 ± 0.013 (genetic background: wild type).

(Values after the supplement of paper PMC10724198.)
